The target in test [1] is B41 SOSIP.664 soluble Env trimer (HIV-1 strain B41 (subtype B)). As to the kind of experiment: native gel or EMSA. On the technique in general: Mobility shift assays separate free from complexed probe on a gel.
In test [2] the target is BG505 ΔCT T332 membrane-bound Env trimer (HIV-1 strain BG505 (subtype A)). In words: native gel or EMSA.
The target in test [3] is JR-FL E168K SOSIP.664 soluble Env trimer (HIV-1 strain JR-FL (subtype B)) (UniProt Q75760). In words: native gel or EMSA.
The target in test [4] is BG505 N332 SOSIP.664 soluble Env trimer (HIV-1 strain BG505 (subtype A)). As to the kind of experiment: native gel or EMSA.
The target in test [5] is B41 viral Env trimer from infectious virus (HIV-1 strain B41 (subtype B)). As to the kind of experiment: native gel or EMSA.
In test [6] the target is BG505 ΔCT T332 membrane-bound Env trimer (HIV-1 strain BG505 (subtype A)). In words: cryo-EM structure.
The target of test [7] is B41 ΔCT membrane-bound Env trimer (HIV-1 strain B41 (subtype B)). In words: native gel or EMSA.
Test [8] has as its target BG505 ΔCT N332 membrane-bound Env trimer (HIV-1 strain BG505 (subtype A)). As to the kind of experiment: native gel or EMSA.
In test [9] the target is JR-FL ΔCT membrane-bound Env trimer (HIV-1 strain JR-FL (subtype B)) (UniProt Q75760). In words: native gel or EMSA.
The target in test [10] is JR-FL viral Env trimer from infectious virus (HIV-1 strain JR-FL (subtype B)). As to the kind of experiment: native gel or EMSA.
The target in test [11] is BG505 viral Env trimer from infectious virus (HIV-1 strain BG505 (subtype A)). In words: native gel or EMSA.
Test [12] concerns the target B41 viral Env trimer from infectious virus (HIV-1 strain B41 (subtype B)).

Some results are limits rather than exact numbers.

The term stoichiometry N denotes the number of molecules, sites or subunits per partner or assembly. With “B41 SOSIP.664 soluble Env trimer (complex)”, in test [1], the stoichiometry N came out at 3.

For the molecule “BG505 ΔCT T332 membrane-bound Env trimer (complex)”, in [2], the stoichiometry N stood at 3.

Turning to “JR-FL E168K SOSIP.664 soluble Env trimer (from UniProt Q75760 1-847) (complex)”, the stoichiometry N in test [3] was 3.

“BG505 N332 SOSIP.664 soluble Env trimer (complex)”: the stoichiometry N in test [4] is 3.

Consider “B41 viral Env trimer from infectious virus (complex)”, for which the stoichiometry N in test [5] came out at 3.

PGT151 Fab gave a stoichiometry N (Fabs per trimer) in test [6] below 2.

In the case of “B41 ΔCT membrane-bound Env trimer (complex)”, the stoichiometry N in test [7] was 3.

In test [8], “BG505 ΔCT N332 membrane-bound Env trimer (complex)” came in with a stoichiometry N of 3.

In turn, “JR-FL ΔCT membrane-bound Env trimer (from UniProt Q75760 1-847) (complex)” returned a stoichiometry N in [9] of 3.

For “JR-FL viral Env trimer from infectious virus (complex)”, the stoichiometry N in [10] amounted to 3.

As to “BG505 viral Env trimer from infectious virus (complex)”, in test [11], the stoichiometry N was found to be 3.

B1: PGT151 monoclonal antibody (bnAb) (antibody, V domains shown)
VH: RVQLVESGGGVVQPGKSVRLSCVVSDFPFSKYPMYWVRQAPGKGLEWVAAISGDAWHVVYSNSVQGRFLVSRDNVKNTLYLEMNSLKIEDTAVYRCARMFQESGPPRLDRWSGRNYYYYSGMDVWGQGTTVTVSS
VL: DIVMTQTPLSLSVTPGQPASISCKSSESLRQSNGKTSLYWYRQKPGQSPQLLVFEVSNRFSGVSDRFVGSGSGTDFTLRISRVEAEDVGFYYCMQSKDFPLTFGGGTKVDLK
As to B1, the neutralisation of B41 virus, maximal percent (Supplementary Figure 5) in test [12] was below 75%.

(Values after paper PMC6135743.)
